Molecular target: Exotoxin A (Pseudomonas aeruginosa, UniProt P11439 26-638)
Assay: SPR; […]; 0-2 uM analyte, 1:1 kinetic model; SPR (Biacore X100): 100 mM NaCl, 20 mM Tris-HCl, 2 mM MgCl2 (pH not stated), room temperature, 5 uL/min
Conditions: protein: commercial; tags: none stated

Exotoxin A, sequence (P11439 26-638): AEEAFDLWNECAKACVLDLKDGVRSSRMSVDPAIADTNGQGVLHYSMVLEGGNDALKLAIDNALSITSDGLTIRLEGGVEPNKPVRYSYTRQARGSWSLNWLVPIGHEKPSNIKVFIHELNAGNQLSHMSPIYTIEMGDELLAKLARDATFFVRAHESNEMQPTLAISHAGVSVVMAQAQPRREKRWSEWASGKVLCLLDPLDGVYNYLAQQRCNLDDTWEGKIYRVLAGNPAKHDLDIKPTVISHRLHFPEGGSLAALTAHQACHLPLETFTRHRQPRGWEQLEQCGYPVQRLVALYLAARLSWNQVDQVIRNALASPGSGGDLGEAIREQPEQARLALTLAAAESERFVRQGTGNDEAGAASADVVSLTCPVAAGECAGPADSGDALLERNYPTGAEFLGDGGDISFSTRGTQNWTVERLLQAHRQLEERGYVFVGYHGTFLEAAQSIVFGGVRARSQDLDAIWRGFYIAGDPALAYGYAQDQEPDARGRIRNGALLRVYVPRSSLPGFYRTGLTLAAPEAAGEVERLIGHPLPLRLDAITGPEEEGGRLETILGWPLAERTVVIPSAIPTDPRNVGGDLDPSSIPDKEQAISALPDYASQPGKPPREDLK

B1: R14.33 (ssDNA)
DNA: TGTACCGTCTGAGCGATTCGTACCATAGGGTGCTTTTCAAGGCCACACGTTAGTGTAAGCCAGTCAGTGTTAAGGAGTGC
modifications: 5' amino-C6
  Kd: 4.35 µM
